Reference: paper PMC10899256

Biological target: TBC1D23 co-precipitated with GFP-tagged LKB1 (Fig. 8a) (UniProt Q9NUY8)
Assay: co-immunoprecipitation (GFP beads) from HEK293T cells, densitometry
Settings: parent: est. 1.0; read off a plot

Chain of TBC1D23 co-precipitated with GFP-tagged LKB1 (Fig. 8a) (Q9NUY8 whole entry): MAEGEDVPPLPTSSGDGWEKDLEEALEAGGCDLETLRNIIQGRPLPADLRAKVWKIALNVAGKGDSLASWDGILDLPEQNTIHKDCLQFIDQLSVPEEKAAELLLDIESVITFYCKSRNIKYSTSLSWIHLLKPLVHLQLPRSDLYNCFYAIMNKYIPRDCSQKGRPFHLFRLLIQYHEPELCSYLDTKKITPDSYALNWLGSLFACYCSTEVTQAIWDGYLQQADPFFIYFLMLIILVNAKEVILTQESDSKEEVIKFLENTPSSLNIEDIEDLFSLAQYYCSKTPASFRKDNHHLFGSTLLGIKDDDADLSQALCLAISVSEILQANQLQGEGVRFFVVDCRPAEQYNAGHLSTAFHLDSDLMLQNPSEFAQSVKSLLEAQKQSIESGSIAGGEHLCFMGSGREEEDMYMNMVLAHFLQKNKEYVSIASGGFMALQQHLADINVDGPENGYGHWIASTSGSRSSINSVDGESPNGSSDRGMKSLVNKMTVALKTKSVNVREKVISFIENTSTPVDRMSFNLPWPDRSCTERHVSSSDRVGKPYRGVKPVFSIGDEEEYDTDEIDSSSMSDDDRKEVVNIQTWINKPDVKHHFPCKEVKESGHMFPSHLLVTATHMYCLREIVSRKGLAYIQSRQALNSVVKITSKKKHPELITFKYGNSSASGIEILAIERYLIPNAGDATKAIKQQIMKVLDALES

Row | ratio to parent | Substance
1 | 0.75 | GFP-LKB1 CRD F354A
2 | 0.82 | GFP-LKB1 CRD F354L
